From PMC7367873, “Dissecting the sequence determinants for dephosphorylation by the catalytic subunits of phosphatases PP1 and PP2A” (Nature Communications, 2020)

Columns and labels:
[1] = tested on: GFP-14-3-3β and its binding proteins; assay: GFP-14-3-3β co-IP with LC-MS/MS label-free quantification, untreated versus PP1c-treated; set-up: species or system human
[2] = tested on: GFP-14-3-3β; assay: GFP-14-3-3β co-IP with LC-MS/MS, untreated GFP-14-3-3β versus GFP control (14-3-3 interactome); assay type: binding, human
[3] = PP1 vs untreated, LFQ intensities, replicates 1-3
[4] = untreated vs GFP, LFQ intensities, replicates 1-3

Molecule | Difference (log2), PP1 vs untreated [1, 3] | Difference (log2), untreated vs GFP [2, 4] | Difference (log2), PP1 vs untreated ([1]; log2 difference, pairwise comparison PP1 vs untreated, label-free quantification, 3 replicates each) | Difference (log2), untreated vs GFP ([2]; log2 difference, pairwise comparison untreated vs GFP, label-free quantification, 3 replicates each)
UTP18 (protein, UniProt Q9Y5J1 1-556, looked up) U3 small nucleolar …: MPPERRRRMKLDRRTGAKPKRKPGMRPDWKAGAGPGGPPQKPAPSSQRKPPARPSAAAAAIAVAAAEEERRLRQRNRLRLEEDKPAVERCLEELVFGDVENDEDALLRRLRGPRVQEHEDSGDSEVENEAKGNFPPQKKPVWVDEEDEDEEMVDMMNNRFRKDMMKNASESKLSKDNLKKRLKEEFQHAMGGVPAWAETTKRKTSSDDESEEDEDDLLQRTGNFISTSTSLPRGILKMKNCQHANAERPTVARISSVQFHPGAQIVMVAGLDNAVSLFQVDGKTNPKIQSIYLERFPIFKACFSANGEEVLATSTHSKVLYVYDMLAGKLIPVHQVRGLKEKIVRSFEVSPDGSFLLINGIAGYLHLLAMKTKELIGSMKINGRVAASTFSSDSKKVYASSGDGEVYVWDVNSRKCLNRFVDEGSLYGLSIATSRNGQYVACGSNCGVVNIYNQDSCLQETNPKPIKAIMNLVTGVTSLTFNPTTEILAIASEKMKEAVRLVHLPSCTVFSNFPVIKNKNISHVHTMDFSPRSGYFALGNEKGKALMYRLHHYSDF | -0.8415 log2 | 2.416 log2 |  | 
CDC42EP1 (protein, UniProt Q00587 1-391, looked up) Cdc42 effector protein 1: MPGPQGGRGAATMSLGKLSPVGWVSSSQGKRRLTADMISHPLGDFRHTMHVGRGGDVFGDTSFLSNHGGSSGSTHRSPRSFLAKKLQLVRRVGAPPRRMASPPAPSPAPPAISPIIKNAISLPQLNQAAYDSLVVGKLSFDSSPTSSTDGHSSYGLDSGFCTISRLPRSEKPHDRDRDGSFPSEPGLRRSDSLLSFRLDLDLGPSLLSELLGVMSLPEAPAAETPAPAANPPAPTANPTGPAANPPATTANPPAPAANPSAPAATPTGPAANPPAPAASSTPHGHCPNGVTAGLGPVAEVKSSPVGGGPRGPAGPALGRHWGAGWDGGHHYPEMDARQERVEVLPQARASWESLDEEWRAPQAGSRTPVPSTVQANTFEFADAEEDDEVKV | -0.8522 log2 | 1.906 log2 |  | 
SH3BP5L (protein, UniProt Q7L8J4 1-393, looked up) SH3 domain-binding protein …: MAELRQVPGGRETPQGELRPEVVEDEVPRSPVAEEPGGGGSSSSEAKLSPREEEELDPRIQEELEHLNQASEEINQVELQLDEARTTYRRILQESARKLNTQGSHLGSCIEKARPYYEARRLAKEAQQETQKAALRYERAVSMHNAAREMVFVAEQGVMADKNRLDPTWQEMLNHATCKVNEAEEERLRGEREHQRVTRLCQQAEARVQALQKTLRRAIGKSRPYFELKAQFSQILEEHKAKVTELEQQVAQAKTRYSVALRNLEQISEQIHARRRGGLPPHPLGPRRSSPVGAEAGPEDMEDGDSGIEGAEGAGLEEGSSLGPGPAPDTDTLSLLSLRTVASDLQKCDSVEHLRGLSDHVSLDGQELGTRSGGRRGSDGGARGGRHQRSVSL | -0.8873 log2 | 3.944 log2 |  | 
NOLC1 (protein, UniProt Q14978 1-699, looked up) Nucleolar and coiled-body …: MADAGIRRVVPSDLYPLVLGFLRDNQLSEVANKFAKATGATQQDANASSLLDIYSFWLKSAKVPERKLQANGPVAKKAKKKASSSDSEDSSEEEEEVQGPPAKKAAVPAKRVGLPPGKAAAKASESSSSEESSDDDDEEDQKKQPVQKGVKPQAKAAKAPPKKAKSSDSDSDSSSEDEPPKNQKPKITPVTVKAQTKAPPKPARAAPKIANGKAASSSSSSSSSSSSDDSEEEKAAATPKKTVPKKQVVAKAPVKAATTPTRKSSSSEDSSSDEEEEQKKPMKNKPGPYSSVPPPSAPPPKKSLGTQPPKKAVEKQQPVESSEDSSDESDSSSEEEKKPPTKAVVSKATTKPPPAKKAAESSSDSSDSDSSEDDEAPSKPAGTTKNSSNKPAVTTKSPAVKPAAAPKQPVGGGQKLLTRKADSSSSEEESSSSEEEKTKKMVATTKPKATAKAALSLPAKQAPQGSRDSSSDSDSSSSEEEEEKTSKSAVKKKPQKVAGGAAPSKPASAKKGKAESSNSSSSDDSSEEEEEKLKGKGSPRPQAPKANGTSALTAQNGKAAKNSEEEEEEKKKAAVVVSKSGSLKKRKQNEAAKEAETPQAKKIKLQTPNTFPKRKKGEKRASSPFRRVREEEIEVDSRVADNSFDAKRGAAGDWGERANQVLKFTKGKSFRHEKTKKKRGSYRGGSISVQVNSIKFDSE | -0.8521 log2 | 2.872 log2 |  | 
CDR2L (protein, UniProt Q86X02 1-465, looked up) Cerebellar …: MRRAAGMEDFSAEEEESWYDQQDLEQDLHLAAELGKTLLERNKELEGSLQQMYSTNEEQVQEIEYLTKQLDTLRHVNEQHAKVYEQLDLTARDLELTNHRLVLESKAAQQKIHGLTETIERLQAQVEELQAQVEQLRGLEQLRVLREKRERRRTIHTFPCLKELCTSPRCKDAFRLHSSSLELGPRPLEQENERLQTLVGALRSQVSQERQRKERAEREYTAVLQEYSELERQLCEMEACRLRVQELEAELLELQQMKQAKTYLLGPDDHLAEALLAPLTQAPEADDPQPGRGDDLGAQDGVSSPAASPGHVVRKSCSDTALNAIVAKDPASRHAGNLTLHANSVRKRGMSILREVDEQYHALLEKYEELLSKCRQHGAGVRHAGVQTSRPISRDSSWRDLRGGEEGQGEVKAGEKSLSQHVEAVDKRLEQSQPEYKALFKEIFSRIQKTKADINATKVKTHSSK | -0.8285 log2 | 4.028 log2 |  | 
HSPD1 (protein, UniProt P10809 27-573, looked up) 60 kDa heat shock protein, …: AKDVKFGADARALMLQGVDLLADAVAVTMGPKGRTVIIEQSWGSPKVTKDGVTVAKSIDLKDKYKNIGAKLVQDVANNTNEEAGDGTTTATVLARSIAKEGFEKISKGANPVEIRRGVMLAVDAVIAELKKQSKPVTTPEEIAQVATISANGDKEIGNIISDAMKKVGRKGVITVKDGKTLNDELEIIEGMKFDRGYISPYFINTSKGQKCEFQDAYVLLSEKKISSIQSIVPALEIANAHRKPLVIIAEDVDGEALSTLVLNRLKVGLQVVAVKAPGFGDNRKNQLKDMAIATGGAVFGEEGLTLNLEDVQPHDLGKVGEVIVTKDDAMLLKGKGDKAQIEKRIQEIIEQLDVTTSEYEKEKLNERLAKLSDGVAVLKVGGTSDVEVNEKKDRVTDALNATRAAVEEGIVLGGGCALLRCIPALDSLTPANEDQKIGIEIIKRTLKIPAMTIAKNAGVEGSLIVEKIMQSSSEVGYDAMAGDFVNMVEKGIIDPTKVVRTALLDAAGVASLLTTAEVVVTEIPKEEKDPGMGAMGGMGGGMGGGMF | -0.8196 log2 | -0.2089 log2 |  | 
YWHAH (protein, UniProt Q04917 2-246, looked up) 14-3-3 protein eta: GDREQLLQRARLAEQAERYDDMASAMKAVTELNEPLSNEDRNLLSVAYKNVVGARRSSWRVISSIEQKTMADGNEKKLEKVKAYREKIEKELETVCNDVLSLLDKFLIKNCNDFQYESKVFYLKMKGDYYRYLAEVASGEKKNSVVEASEAAYKEAFEISKEQMQPTHPIRLGLALNFSVFYYEIQNAPEQACLLAKQAFDDAIAELDTLNEDSYKDSTLIMQLLRDNLTLWTSDQQDEEAGEGN | -0.8796 log2 | 7.762 log2 |  | 
NOP56 (protein, UniProt O00567 1-594, looked up) Nucleolar protein 56: MVLLHVLFEHAVGYALLALKEVEEISLLQPQVEESVLNLGKFHSIVRLVAFCPFASSQVALENANAVSEGVVHEDLRLLLETHLPSKKKKVLLGVGDPKIGAAIQEELGYNCQTGGVIAEILRGVRLHFHNLVKGLTDLSACKAQLGLGHSYSRAKVKFNVNRVDNMIIQSISLLDQLDKDINTFSMRVREWYGYHFPELVKIINDNATYCRLAQFIGNRRELNEDKLEKLEELTMDGAKAKAILDASRSSMGMDISAIDLINIESFSSRVVSLSEYRQSLHTYLRSKMSQVAPSLSALIGEAVGARLIAHAGSLTNLAKYPASTVQILGAEKALFRALKTRGNTPKYGLIFHSTFIGRAAAKNKGRISRYLANKCSIASRIDCFSEVPTSVFGEKLREQVEERLSFYETGEIPRKNLDVMKEAMVQAEEAAAEITRKLEKQEKKRLKKEKKRLAALALASSENSSSTPEECEEMSEKPKKKKKQKPQEVPQENGMEDPSISFSKPKKKKSFSKEELMSSDLEETAGSTSIPKRKKSTPKEETVNDPEEAGHRSGSKKKRKFSKEEPVSSGPEEAVGKSSSKKKKKFHKASQED | -0.8589 log2 | 2.987 log2 |  | 
COPB1 (protein, UniProt P53618 2-953, looked up) Coatomer subunit beta: TAAENVCYTLINVPMDSEPPSEISLKNDLEKGDVKSKTEALKKVIIMILNGEKLPGLLMTIIRFVLPLQDHTIKKLLLVFWEIVPKTTPDGRLLHEMILVCDAYRKDLQHPNEFIRGSTLRFLCKLKEAELLEPLMPAIRACLEHRHSYVRRNAVLAIYTIYRNFEHLIPDAPELIHDFLVNEKDASCKRNAFMMLIHADQDRALDYLSTCIDQVQTFGDILQLVIVELIYKVCHANPSERARFIRCIYNLLQSSSPAVKYEAAGTLVTLSSAPTAIKAAAQCYIDLIIKESDNNVKLIVLDRLIELKEHPAHERVLQDLVMDILRVLSTPDLEVRKKTLQLALDLVSSRNVEELVIVLKKEVIKTNNVSEHEDTDKYRQLLVRTLHSCSVRFPDMAANVIPVLMEFLSDNNEAAAADVLEFVREAIQRFDNLRMLIVEKMLEVFHAIKSVKIYRGALWILGEYCSTKEDIQSVMTEIRRSLGEIPIVESEIKKEAGELKPEEEITVGPVQKLVTEMGTYATQSALSSSRPTKKEEDRPPLRGFLLDGDFFVAASLATTLTKIALRYVALVQEKKKQNSFVAEAMLLMATILHLGKSSLPKKPITDDDVDRISLCLKVLSECSPLMNDIFNKECRQSLSHMLSAKLEEEKLSQKKESEKRNVTVQPDDPISFMQLTAKNEMNCKEDQFQLSLLAAMGNTQRKEAADPLASKLNKVTQLTGFSDPVYAEAYVHVNQYDIVLDVLVVNQTSDTLQNCTLELATLGDLKLVEKPSPLTLAPHDFANIKANVKVASTENGIIFGNIVYDVSGAASDRNCVVLSDIHIDIMDYIQPATCTDAEFRQMWAEFEWENKVTVNTNMVDLNDYLQHILKSTNMKCLTPEKALSGYCGFMAANLYARSIFGEDALANVSIEKPIHQGPDAAVTGHIRIRAKSQGMALSLGDKINLSQKKTSI | -0.8147 log2 | 0.6071 log2 |  | 
KRT18 (protein, UniProt P05783 2-430, looked up) Keratin, type I cytoskeletal …: SFTTRSTFSTNYRSLGSVQAPSYGARPVSSAASVYAGAGGSGSRISVSRSTSFRGGMGSGGLATGIAGGLAGMGGIQNEKETMQSLNDRLASYLDRVRSLETENRRLESKIREHLEKKGPQVRDWSHYFKIIEDLRAQIFANTVDNARIVLQIDNARLAADDFRVKYETELAMRQSVENDIHGLRKVIDDTNITRLQLETEIEALKEELLFMKKNHEEEVKGLQAQIASSGLTVEVDAPKSQDLAKIMADIRAQYDELARKNREELDKYWSQQIEESTTVVTTQSAEVGAAETTLTELRRTVQSLEIDLDSMRNLKASLENSLREVEARYALQMEQLNGILLHLESELAQTRAEGQRQAQEYEALLNIKVKLEAEIATYRRLLEDGEDFNLGDALDSSNSMQTIQKTTTRRIVDGKVVSETNDTKVLRH |  |  | 1.649 | -2.259
